“Also recorded” adds a separate entry of the source.
Key:
[1] = system: MSRV-Env induced EAE in C57BL/6 mice; assay: EAE clinical score, Example 3.C (GNbAC1 and Sodium Fumarate); format: in vivo
Source text: Animals were weighed and clinically scored 5 days per week according to the following criteria: 0=no signs; 1=tail paralysis or hyper-reflex of hind limb(s) or unilateral hind limb weakness; 2=bilateral hind limb or forelimb weakness; 3=plus unilateral paralysis or major deficit; 4=complete hind limb or forelimb paralysis; 5=plus partial paralysis or major deficit of opposite limbs; 6=moribund or dead. These were adapted from standard criteria, in order to reflect the more rapid induction of brain and cervical cord lesions with this model.

human OPC = assay: Expression of MBP in human OPC in primary culture stimulated by MSRV-Env, with or without GNbAC1 (immunocytochemistry); format: cell-based; conditions: for MBP positive cells, normalized to control condition (buffer = 100%): pooled data
Procedure: Full length recombinant MSRV-Env was produced and purified by PX′Therapeutics (548 aa; 61.44 KDa) (batch 110719-1). The initial concentration was 0.6 mg/ml (9.76 μM). MSRV-Env Buffer (20 mM Trizma-HCl, pH 7.5, 150 mM NaCl, 1.5% SDS, 10 mM DTT) was provided by PX′Therapeutics. This solution was used as a negative control. GNbAC1 (Batch T96/bAC1/B1; GMP production) was produced and purified by Polymun Scientific, Vienna, Austria. The initial concentration was 10 mg/ml (68.03 μM).
Human OPC were stimulated with the different treatments either by coating solutions on the cell culture plate surface before cells seeding or by adding them in the cell culture medium after cells seeding. In any case, labtek 8-wells chamber slides (Nunc) were previously coated with poly-L-lysine (Sigma-Aldrich) overnight at 37° C.
The different treatments were diluted in PBS under a sterile laminar flow hood (Fischer Bioblock, France) and the Labtek 8 wells chambers slides (Nunc; 250 μl per well) were coated as follows: • MSRV-Env (1 μg/ml) coated for 2 hours at 37° C. • MSRV-Env Buffer (same dilution than MSRV-Env) coated for 2 hours at 37° C. • MSRV-Env+GNbAC1 A1: MSRV-Env (1 μg/ml) and GNbAC1 (7.35 μg/ml=50 nM) mixture coated for 2 hours at 37° C. • MSRV-Env+GNbAC1 A2: MSRV-Env (1 μg/ml) and GNbAC1 (29.4 μg/ml=200 nM) mixture coated for 2 hours at 37° C. • MSRV-Env+GNbAC1 B1: MSRV-Env (1 μg/ml) coated for 2 hours at 37° C., washed with PBS and subsequently coated with GNbAC1 (7.35 μg/ml=50 nM) for 1 hour at 37° C. • MSRV-Env+GNbAC1 B2: MSRV-Env (1 μg/ml) coated for 2 hours at 37° C., washed with PBS and subsequently coated with GNbAC1 (29.4 μg/ml=200 nM) for 1 hour at 37° C. • GNbAC1 A1 alone: GNbAC1 (7.35 μg/ml=50 nM) coated for 2 hours at 37° C. • GNbAC1 A2 alone: GNbAC1 (29.4 μg/ml=200 nM) coated for 2 hours at 37° C. • GNbAC1 B1 alone: PBS for 2 hours at 37° C., then coated with GNbAC1 (7.35 μg/ml=50 nM) for 1 hour at 37° C. • GNbAC1 B2 alone: PBS for 2 hours at 37° C., then coated with GNbAC1 (29.4 μg/ml=200 nM) for 1 hour at 37° C. • BSA (1 μg/ml) coated for 2 hours at 37° C. • BSA+GNbAC1 A1: BSA (1 μg/ml) and GNbAC1 (7.35 μg/ml=50 nM) mixture coated for 2 hours at 37° C. • BSA+GNbAC1 A2: BSA (1 μg/ml) and GNbAC1 (29.4 μg/ml=200 nM) mixture coated for 2 hours at 37° C. • BSA+GNbAC1 B1: BSA (1 μg/ml) coated for 2 hours at 37° C., washed with PBS and subsequently coated with GNbAC1 (7.35 μg/ml=50 nM) for 1 hour at 37° C. • BSA+GNbAC1 B2: BSA (1 μg/ml) coated for 2 hours at 37° C., washed with PBS and subsequently coated with GNbAC1 (29.4 μg/ml=200 nM) for 1 hour at 37° C. Human Oligodendrocyte Precursor Cells Culture
The vial containing the human OPC was placed in a 37° C. water bath and gently agitated by rotation until the content was completely thawed. The cells were gently resuspended with a 1 ml Gilson pipette. Then, they were diluted in complete OPCM, and seeded into the 8-wells labtek culture vessels (7000 cells/cm^2=10000 cells per well) previously coated with poly-L-lysine (0.01%, Sigma) and with (or without) the treatments described above (see 3.2.1.1) under a sterile laminar flow hood (Fischer Bioblock, France). The cultures were incubated at 37° C.; 5% CO2 until subsequent immunocytochemistry experiments. The growth medium was changed the next day to remove the residual DMSO and unattached cells in the cultures treated for 72 hours.
After 3 hours of pre-cultivation (see 3.2.1.2) of the human OPC in the 8-well labtek culture vessels, the cells were incubated at 37° C. for 24 hours or 72 hours in 8-wells labteks (250 μl/well) with the addition of the following solutions: • MSRV-Env Buffer, used as a negative control, added in complete cell culture medium • MSRV-Env added at 3 nM (0.184 μg/ml) in complete cell culture medium • MSRV-Env (3 nM)+GNbAC1 (200 nM; 29.4 μg/ml) mixture added in complete cell culture medium • GNbAC1 (200 nM) alone added in complete cell culture medium Expression of TLR4 and Myelination Markers in OPC In Vitro […]

B1: GNbAC1: recombinant humanized anti-Env IgG4 monoclonal antibody comprising the CDRs of SEQ ID No. 1 to 6 (antibody, chains of the INN, looked up, V domains shown)
VH: QVQLVQSGAEVKKPGSSVKVSCKASGYTFTDYEMHWVRQAPGQGLEWIGAVAPETGGTAYNQKFKGRATITADKSTSTAYMELSSLRSEDTAVYYCTSTVVPFAYWGQGTLVTVSS
VL: QIQLTQSPSSLSASVGDRVTITCSASSSVSYMYWYQQKPGKAPKAWIYRTSNLASGVPSRFSGSGSGTDYTLTISSLQPEDFATYYCQQYQSLPLTFGGGTKVEIK
EAE clinical score kinetics and endpoint ([1]; from day 12: GNbAC1 500 μg IP, Sodium Fumarate 10 mg daily in 3.5 ml drinking water, versus isotype control antibody): significant reversion of their clinical score curves; also recorded: equivalent and significantly good recovery at the end of the study
day from which clinical improvement appeared ([1]; treatment started day 12): 15 days
effect on the decrease of MBP positive cells induced by coated MSRV-Env (human OPC; GNbAC1 50 nM, both protocols, 72 hours): partial effect; also recorded: partially inhibits MSRV-Env effect
effect on the decrease of MBP positive cells induced by coated MSRV-Env (human OPC; GNbAC1 200 nM, both protocols, 72 hours): complete inhibition
effect on the inhibition of MBP expression induced by coated MSRV-Env (human OPC; GNbAC1 200 nM, both protocols, 72 hours, OPC ICC 03): completely reverses
percentage of MBP positive cells (human OPC; GNbAC1-A 50 nM, coated MSRV-Env 1 μg/ml, 72 hours, OPC ICC 02): 69±2%
MBP positive cells, normalized to control condition (buffer = 100%) (human OPC; GNbAC1-A 200 nM with coated MSRV-Env): 101±2%
percentage of MBP positive cells (human OPC; GNbAC1-A 200 nM, coated MSRV-Env 1 μg/ml, 72 hours, OPC ICC 02): 73±2%
percentage of MBP positive cells (human OPC; GNbAC1-A 200 nM, coated MSRV-Env 1 μg/ml, 72 hours, OPC ICC 03): 80±2%
percentage of MBP positive cells (human OPC; GNbAC1-B 50 nM, coated MSRV-Env 1 μg/ml, 72 hours, OPC ICC 02): 68±2%
MBP positive cells, normalized to control condition (buffer = 100%) (human OPC; GNbAC1-B 200 nM with coated MSRV-Env): 97±2%
percentage of MBP positive cells (human OPC; GNbAC1-B 200 nM, coated MSRV-Env 1 μg/ml, 72 hours, OPC ICC 02): 74±2%
percentage of MBP positive cells (human OPC; GNbAC1-B 200 nM, coated MSRV-Env 1 μg/ml, 72 hours, OPC ICC 03): 75±2%
percentage of MBP positive cells (human OPC; MSRV-Env 3 nM + GNbAC1 200 nM in culture medium, 72 hours): 76±2%
effect on the decrease of MBP expression induced by MSRV-Env in culture medium (human OPC; MSRV-Env 3 nM, GNbAC1 200 nM, 72 hours): inhibits completely this effect
